Here are results for one molecule from US20160046728A1 (HENOGEN S A, published 2016).

One assay addresses t-PA (UniProt P00750 36-562). Nature of the assay: SPR (BIAcore 3000), Ir-CPI immobilized on CM5 chip, factor injected as analyte. As to the method:
(§1) The interaction between Ir-CPI and coagulation or fibrinolytic factors was monitored using a BIAcore 3000 instrument (BIAcore AB, Sweden). Ir-CPI (15 μM) was immobilized on the surface of a CM5 sensor chip in 10 mM acetate buffer, pH 5.0, by the amine coupling procedure according to the manufacturer's instructions. 1500 resonance units (RU) of immobilized Ir-CPI were used for the assay. To subtract the non-specific component from the apparent binding response, a blank flow cell was prepared using the same immobilizing procedure without Ir-CPI. Binding analyses were carried out using HBS buffer (HEPES 10 mM, NaCl 150 mM, EDTA 3 mM; pH 7.4 with 0.005% surfactant P20) as running buffer at 25° C. 100 μl of each analyte (100 nM) was injected on the sensor chip at a flow rate of 70 μl/min Association was monitored during an 84 s injection of analyte. Dissociation was monitored for 3 min after return to the running buffer.
(§2) The ability of Ir-CPI to bind a (co)factor of coagulation or fibrinolysis was evaluated by surface plasmon resonance. […] Moreover, the kinetics of interaction between Ir-CPI and the four target factors (XIIa, XIa, plasmin and kallikrein) were measured after a new immobilization of Ir-CPI. […] Interaction kinetics were determined for each analyte, at 6 different concentrations (from 5 nM to 300 nM). The kinetic data obtained were individually processed with BIA evaluation software in order to determine the kinetics constants.

Assay [1] has as its target T1, high molecular weight kininogen (UniProt P01042 19-644).
T1 construct: also called HMWK
T1 sequence (looked up): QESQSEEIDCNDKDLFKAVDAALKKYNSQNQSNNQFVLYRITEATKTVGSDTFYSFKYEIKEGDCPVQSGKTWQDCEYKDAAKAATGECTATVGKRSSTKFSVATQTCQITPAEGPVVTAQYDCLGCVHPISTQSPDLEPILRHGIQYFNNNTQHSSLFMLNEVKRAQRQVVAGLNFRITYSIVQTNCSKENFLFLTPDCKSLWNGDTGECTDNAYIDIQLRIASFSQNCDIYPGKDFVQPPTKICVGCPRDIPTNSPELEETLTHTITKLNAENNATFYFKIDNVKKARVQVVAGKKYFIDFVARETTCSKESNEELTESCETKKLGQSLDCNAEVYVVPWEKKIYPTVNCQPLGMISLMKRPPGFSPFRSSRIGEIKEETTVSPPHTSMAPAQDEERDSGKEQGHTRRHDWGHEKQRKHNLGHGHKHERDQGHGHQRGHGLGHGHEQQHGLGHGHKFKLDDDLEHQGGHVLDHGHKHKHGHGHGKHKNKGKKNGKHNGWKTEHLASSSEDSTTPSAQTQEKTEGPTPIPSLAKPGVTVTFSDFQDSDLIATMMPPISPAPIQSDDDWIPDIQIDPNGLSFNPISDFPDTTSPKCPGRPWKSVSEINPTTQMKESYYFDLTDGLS
The description is as above. As to the method: as §1, §2

In a further assay the target is plasminogen (UniProt P00747 20-810). The description is as above. As to the method:
as §1, §2

The target of a further assay is T2, factor X (UniProt P00742 41-488).
T2 construct: also called fX
Described as above. How it is done:
as §1, §2

Another assay concerns the target T3, factor IX (UniProt P00740 47-461).
T3 construct: also called fIX
The description is as above. How it is done: as §1, §2

In the next assay the target is T4, factor VIIa (UniProt P08709 61-466).
T4 construct: In the amidolytic and reconstituted assays it was used with tissue factor ('FT-FVIIa', 'tissue factor complex/factor VIIa'); In SPR it is printed only as 'fVIIa'; also called fVIIa; FVIIa
T4 sequence (looked up): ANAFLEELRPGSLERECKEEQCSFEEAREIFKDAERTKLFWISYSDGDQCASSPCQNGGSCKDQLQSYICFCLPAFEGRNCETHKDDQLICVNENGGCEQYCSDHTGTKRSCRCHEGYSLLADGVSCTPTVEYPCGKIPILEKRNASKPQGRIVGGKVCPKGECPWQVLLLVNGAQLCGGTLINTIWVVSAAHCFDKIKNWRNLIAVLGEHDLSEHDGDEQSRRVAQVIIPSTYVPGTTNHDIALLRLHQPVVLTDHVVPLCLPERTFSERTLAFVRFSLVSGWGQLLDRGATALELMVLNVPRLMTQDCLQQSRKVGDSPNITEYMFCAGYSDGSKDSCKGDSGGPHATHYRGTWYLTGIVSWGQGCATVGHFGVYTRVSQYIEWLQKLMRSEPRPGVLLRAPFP
Described as above. As to the method: as §1, §2

Another assay addresses T5, thrombin (UniProt P00734 328-622).
T5 construct: also called factor IIa; IIa
The assay is described as above. As to the method:
as §1, §2

The next assay concerns the target factor XIa (UniProt P03951 19-625). Description: cell-based or functional assay.
A further assay concerns the target T6, factor XIIa (UniProt P00748 20-615, limits assumed).
T6 sequence (looked up): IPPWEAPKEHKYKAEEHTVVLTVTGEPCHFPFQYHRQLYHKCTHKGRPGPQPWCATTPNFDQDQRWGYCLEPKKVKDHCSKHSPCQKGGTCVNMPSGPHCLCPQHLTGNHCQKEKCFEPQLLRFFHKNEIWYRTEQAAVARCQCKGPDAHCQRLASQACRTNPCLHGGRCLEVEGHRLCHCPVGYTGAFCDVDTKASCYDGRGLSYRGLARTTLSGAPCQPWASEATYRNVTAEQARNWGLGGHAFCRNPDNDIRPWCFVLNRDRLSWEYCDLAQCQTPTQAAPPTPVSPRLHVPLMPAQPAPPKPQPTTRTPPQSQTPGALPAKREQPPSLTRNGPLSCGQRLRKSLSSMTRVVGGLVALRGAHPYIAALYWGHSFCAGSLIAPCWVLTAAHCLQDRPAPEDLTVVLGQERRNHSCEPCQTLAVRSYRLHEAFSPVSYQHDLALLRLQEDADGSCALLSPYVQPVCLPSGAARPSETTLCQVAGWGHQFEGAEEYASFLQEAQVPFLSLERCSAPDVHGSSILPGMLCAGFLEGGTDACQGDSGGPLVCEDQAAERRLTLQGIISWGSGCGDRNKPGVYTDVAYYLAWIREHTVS
Nature of the assay: cell-based or functional assay.

The target in another assay is plasma kallikrein (UniProt P03952 20-638). Description: SPR kinetics, Ir-CPI immobilized (about 200 RU), analyte at 6 concentrations from 5 nM to 300 nM. How it is done:
Interaction kinetics were determined, for each analyte, with 6 different concentrations (from 5 nM to 300 nM). Binding data were analyzed using BIA evaluation software to determine the kinetic constants.
The ability of Ir-CPI to bind a (co)factor of coagulation or fibrinolysis was evaluated by surface plasmon resonance. […] Moreover, the kinetics of interaction between Ir-CPI and the four target factors (XIIa, XIa, plasmin and kallikrein) were measured after a new immobilization of Ir-CPI. […] Interaction kinetics were determined for each analyte, at 6 different concentrations (from 5 nM to 300 nM). The kinetic data obtained were individually processed with BIA evaluation software in order to determine the kinetics constants. […] FIG. 9 represents sensorgrams for interactions between coagulation factors and immobilized Ir-CPI measured by surface plasmon resonance. Ir-CPI was immobilized onto the surface of a sensor chip CM5 at level of 1500 resonance units (RUs). Contact factors (100 nM final concentration) were injected at a flow rate of 70 μl/min in HBS buffer, and association was monitored. After return to buffer flow, dissociation was monitored during 84 s. The sensor chip surface was regenerated by a pulse injection of 25 mM NaOH after each experiment.

Chain of plasma kallikrein (P03952 20-638 limits assumed): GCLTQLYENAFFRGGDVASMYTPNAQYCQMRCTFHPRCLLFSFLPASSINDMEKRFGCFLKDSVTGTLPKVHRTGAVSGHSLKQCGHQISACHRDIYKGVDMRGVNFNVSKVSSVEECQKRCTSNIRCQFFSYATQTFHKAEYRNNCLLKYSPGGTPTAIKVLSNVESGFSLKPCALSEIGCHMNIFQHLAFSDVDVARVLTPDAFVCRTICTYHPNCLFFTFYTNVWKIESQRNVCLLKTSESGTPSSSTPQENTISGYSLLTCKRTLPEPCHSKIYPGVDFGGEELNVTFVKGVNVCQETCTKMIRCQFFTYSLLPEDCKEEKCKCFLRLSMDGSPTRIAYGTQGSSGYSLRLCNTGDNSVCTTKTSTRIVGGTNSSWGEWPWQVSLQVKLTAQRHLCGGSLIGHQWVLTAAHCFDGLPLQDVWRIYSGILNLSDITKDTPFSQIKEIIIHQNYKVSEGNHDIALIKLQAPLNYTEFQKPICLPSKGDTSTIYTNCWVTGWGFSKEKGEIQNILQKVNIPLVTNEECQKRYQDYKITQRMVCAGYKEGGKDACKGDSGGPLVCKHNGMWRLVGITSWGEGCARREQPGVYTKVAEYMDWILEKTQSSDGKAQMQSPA
Chain of t-PA (P00750 36-562 limits assumed): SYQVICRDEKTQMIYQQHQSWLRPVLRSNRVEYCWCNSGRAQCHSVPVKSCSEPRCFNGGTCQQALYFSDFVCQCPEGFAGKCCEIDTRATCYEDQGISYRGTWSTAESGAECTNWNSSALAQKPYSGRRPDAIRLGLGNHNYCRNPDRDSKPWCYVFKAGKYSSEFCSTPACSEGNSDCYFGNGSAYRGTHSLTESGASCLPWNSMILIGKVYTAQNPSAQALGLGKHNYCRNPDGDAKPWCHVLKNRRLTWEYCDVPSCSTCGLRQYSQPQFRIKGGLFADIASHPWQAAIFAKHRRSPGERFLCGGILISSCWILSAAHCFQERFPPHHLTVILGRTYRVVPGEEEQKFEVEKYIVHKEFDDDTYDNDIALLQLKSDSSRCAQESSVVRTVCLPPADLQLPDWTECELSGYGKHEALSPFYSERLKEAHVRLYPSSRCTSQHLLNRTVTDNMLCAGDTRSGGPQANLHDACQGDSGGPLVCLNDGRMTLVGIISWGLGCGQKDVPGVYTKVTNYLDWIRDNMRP
Chain of plasminogen (P00747 20-810 limits assumed): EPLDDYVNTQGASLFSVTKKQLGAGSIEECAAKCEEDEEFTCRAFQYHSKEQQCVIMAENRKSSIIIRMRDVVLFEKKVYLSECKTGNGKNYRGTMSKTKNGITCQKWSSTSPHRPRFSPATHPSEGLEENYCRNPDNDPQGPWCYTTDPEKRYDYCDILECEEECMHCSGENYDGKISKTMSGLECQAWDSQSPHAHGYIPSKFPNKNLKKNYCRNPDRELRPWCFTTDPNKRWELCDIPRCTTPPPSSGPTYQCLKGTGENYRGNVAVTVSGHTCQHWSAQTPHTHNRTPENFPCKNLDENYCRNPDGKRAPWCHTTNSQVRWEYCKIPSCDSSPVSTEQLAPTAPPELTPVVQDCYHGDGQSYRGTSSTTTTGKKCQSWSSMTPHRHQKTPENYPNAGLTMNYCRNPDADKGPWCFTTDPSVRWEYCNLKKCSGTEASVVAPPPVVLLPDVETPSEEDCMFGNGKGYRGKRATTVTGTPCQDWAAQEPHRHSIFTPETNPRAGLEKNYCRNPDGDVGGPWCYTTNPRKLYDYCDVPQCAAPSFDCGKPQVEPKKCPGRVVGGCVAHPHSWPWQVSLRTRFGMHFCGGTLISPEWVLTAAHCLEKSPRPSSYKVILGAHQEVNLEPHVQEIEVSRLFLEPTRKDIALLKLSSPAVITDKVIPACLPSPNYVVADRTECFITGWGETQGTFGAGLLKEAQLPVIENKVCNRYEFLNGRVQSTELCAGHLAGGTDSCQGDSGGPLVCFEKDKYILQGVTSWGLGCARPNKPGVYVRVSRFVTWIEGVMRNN

B1: Ir-CPI (Ixodes ricinus Contact Phase Inhibitor), recombinant (other)
chain: ANHKGRGRPAKCKLPPDDGPCRARIPSYYFDRKTKTCKEFMYGGCEGNENNFENITTCQEECRAKKV
notes: Kunitz-type protein; Made in E. coli as a GST fusion (pGEX-6P-1), released with PreScission protease and gel filtered; In the SPR assay it was amine-coupled to a CM5 chip; also called ID; NO; 7 without its peptide signal
With B1, the binding result (with t-PA; in assay [1]; with plasminogen; with factor X; in the assay with factor IX; with factor VIIa) was “no binding (tested: 100 nM)” each time. Besides, the binding result in the assay with thrombin is “no binding (tested: 100 nM)”. Moreover, in the assay with factor XIa, the “EC50 (µg/mL) of inhibition of FXI coagulation activity, aPTT-based assay in human plasma with FXI deficient plasma” value stood at 1.41 µg/mL. The “EC50 (µg/mL) of inhibition of FXII coagulation activity, aPTT-based assay in human plasma with FXII deficient plasma” value in the assay with factor XIIa was 1.38 µg/mL. Moreover, the affinity in the assay with plasma kallikrein, expressed as Kd, was 200 nM.
